Laboratory results as given in PMC11980386.
Where “and” joins values, the source holds several entries; their conditions need not be identical. Equal values may be shown once. Blank lines part the entries; values can stand above or below the substance they belong to.

Assays:
[1] = target: CD0828 of Clostridioides difficile (annotated as a glutamate synthase, with an N-terminal rubredoxin-like domain) (Clostridioides difficile); assay: SEC; Superdex S200 10/300 GL, 20 mM Tris-HCl pH 7.5, 18% glycerol, 150 mM NaCl; mass read against a second set of standards (ovalbumin, conalbumin, aldolase, ferritin, thyroglobulin)
[2] = target: Superoxide reductase Sor (CD0827, desulfoferrodoxin) of Clostridioides difficile (Clostridioides difficile); assay: SEC; Superdex S200 10/300 GL, 20 mM Tris-HCl pH 7.5, 150 mM NaCl, no glycerol; mass read against protein standards
[3] = target: Rubrerythrin Rbr (CD0825) of Clostridioides difficile (Clostridioides difficile); assay: SEC; Superdex S200 10/300 GL, 20 mM Tris-HCl pH 7.5, 18% glycerol, 150 mM NaCl; mass read against protein standards

stoichiometry N [1]: 2
Substance: CD0828 of Clostridioides difficile (annotated as a glutamate synthase, with an N-terminal rubredoxin-like domain) (natural protein)

stoichiometry N [2]: 2 and 4
Substance: Superoxide reductase Sor (CD0827, desulfoferrodoxin) of Clostridioides difficile (enzyme)

stoichiometry N [3]: 4
Substance: Rubrerythrin Rbr (CD0825) of Clostridioides difficile (enzyme)
